Experimental data reported in paper PMC4074040.

Molecular target: BBPLo, bilin-binding protein from Lonomia obliqua (a variant of lopap) (Lonomia obliqua)
Experiment: SEC; analytical gel filtration of recombinant, refolded BBPLo on Superdex 75, calibrated with standards (myoglobin, NP2, IPP, BSA); monomers to dimer

BBPLo, bilin-binding protein from Lonomia obliqua (a variant of lopap) (natural protein)
stoichiometry N: 2
